Measured values: publication PMC11483992
“And” between values parts separate entries of the source, which are not always exact repeats. Equal entries are not always repeated.

Experiments:
AS25_(A57G) = experiment: ITC; Abl SH2 in the syringe (200 µM, or 300 µM for AS25 Y45A-A57G) titrated to the monobody in the cell (20 µM, or 30 µM); 50 mM Tris pH 7.0, 250 mM NaCl, 5% glycerol; 25 °C
AS25_(Y45A-A57G) = experiment: as above
monobody AS25 = experiment: as above
AS25 A57G monobody = experiment: ITC; Abl SH2 in the syringe (200 µM; 300 µM for AS25 Y45A-A57G) titrated to the monobody in the cell (20 µM; 30 µM for AS25 Y45A-A57G); 25 °C; 50 mM Tris pH 7.0, 250 mM NaCl, 5% glycerol; two replicate experiments
AS25 Y45A-A57G monobody = experiment: as above
AS25 monobody = experiment: as above

Sequence of AS25 Y45A-A57G monobody (main, as listed by the source Y45A A57G): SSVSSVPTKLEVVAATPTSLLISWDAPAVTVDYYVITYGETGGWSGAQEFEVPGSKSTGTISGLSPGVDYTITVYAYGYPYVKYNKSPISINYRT
Sequence of AS25_(A57G) (main, as listed by the source A57G): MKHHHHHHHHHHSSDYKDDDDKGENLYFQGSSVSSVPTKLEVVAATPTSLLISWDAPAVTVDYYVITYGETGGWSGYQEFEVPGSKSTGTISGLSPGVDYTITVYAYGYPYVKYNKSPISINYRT
Sequence of monobody AS25 (main, as listed by the source): as the sequence (main, as listed by the source A57G) above, with G89A counted along it
Sequence of AS25_(Y45A-A57G) (main, as listed by the source Y45A A57G): as the sequence (main, as listed by the source A57G) above, with Y77A counted along it

Abl1 SH2 domain (from UniProt P00519 112-232) (domain or fragment)
Kd (AS25_(A57G)): 156 nM
stoichiometry N (AS25_(A57G)): 1
Kd (AS25_(Y45A-A57G)): 2690 nM
stoichiometry N (AS25_(Y45A-A57G)): 1
Kd (monobody AS25): 180 nM
stoichiometry N (monobody AS25): 1
Kd (AS25 A57G monobody): 188 nM
stoichiometry N (AS25 A57G monobody): 0.864 and 0.817
Kd (AS25 Y45A-A57G monobody): 3170 nM
stoichiometry N (AS25 Y45A-A57G monobody): 0.792 and 0.788
Kd (AS25 monobody): 210 nM
stoichiometry N (AS25 monobody): 0.861 and 0.869
